{
  "source": "paper doi:10.1101/2023.01.10.523494",
  "about": "(bioRxiv, 2023)",
  "binders": {"B1": {"name": "hRBD6 (antibody, V domains shown)", "VH": "QVQLQQWGAGLLKPSETLSLSCAVYGGAFSDYYWSWIRQPPGKGLEWIGEIDLSGSTNYNPSLKSRVTISVDTSKNQFSLKLISVTAADTAVYYCARTHLIGYCSGGSCYSGPDPSNWFDPWGQGTLVTVSS", "VL": "SSELTQDPAVSVALGQTVRITCQGDSLRSYYASWYQQKPGQAPVLVIYGKNNRPSGIPDRFSGSSSGNTASLTITGAQAEDEADYYCNSRDTSGHHPVFGGGTKLTVL"}, "B2": {"name": "hRBD10 (antibody, V domains shown)", "VH": "EVQLVESGGGLVQPGGSLRLSCSASGFTFTTYNMNWVRQAPGKGLEWVSYISSSSSTIYYADSVEGRFTISRDNAKNSLYLQMNSLRDEDTAVYYCARGVGATSYYYHGMDVWGQGTTVSVSS", "VL": "DIQMTQSPSSLSASVGDRVTITCRASQSIYSYLNWYKQKAGKAPKLLIYAASSLQSGVPSRFSGSGSGTDFTLTIISLQPEDFATYYCQQSYSTPPTFGQGTKVEIK"}, "B3": {"name": "mRBD7 (antibody, V domains shown)", "VH": "QVQLKQSGAELVRPGASVKLSCKASGYTFTDYYINWVKQRPGQGLEWIARIYPGSGNTYYNEKFKGKATLTAEKSSSTAYMQLSSLTSEDSAVYFCARYPLYDYDEEDYFDYWGQGTTLTVSS", "VL": "DIQMTQTTSSLSASLGDRVTISCRASQDISNYLNWYQQKPDGTVKLLIYYTSRLHSGVPSRFSGSGSGTDYSLTISNLEQEDIATYFCQQGNTLPYTFGGGTKLEIK"}, "B4": {"name": "mRBD12 (antibody, V domains shown)", "VH": "QVQLQQSGAELARPGASVKLSCKASGYTFTSYGISWVKQRTGQGLEWIGEIYPRSGNTYYNEKFKGKATLTADKSSSTAYMEVRSLTSEDSAVYFCAREGGYGYVMDYWGQGTSVTVSS", "VL": "B3 VL with L73F, Y96W"}, "B5": {"name": "mRBD17 (antibody, V domains shown)", "VH": "QIQLVQSGPELKKPGETVKISCKASGYTLTEYPMHWVKQAPGKGFKWMGMIYTDTGEPTYAEEFKGRFAFSLETSASTAYLQINNLKNEDTATYFCVRAGPSFAMDYWGQGTSVTVSS", "VL": "B3 VL with I83F"}, "B6": {"name": "mRBD10 (antibody, V domains shown)", "VH": "QVQLKQSGAELVRPGASVKLSCKASGYTFTDYYINWVKQRPGQGLEWIARIYPGSGNTYYNEKFKGKATLTAEKSSSTAYMQLSSLTSEDSAVYFCARDYGSSYVDYFDYWGQGTTLTVSS", "VL": "B3 VL with Y96L, G100A, I106L"}, "B7": {"name": "hRBD11 (antibody, V domains shown)", "VH": "QVQLQESGPGLVKPSQTLSLTCTVSGGSISSGGYYWSWIRQHPGKGLEWIGYIFYSGSTYYNPSLKSRVIISVDTSKNQFSLKLSSVTAADTAAYYCARVNRVYGSGSYSLDPWGQGTLVTVSS", "VL": "QSALTQPASVSGSPGQSITISCTGTSRDVGDYDYVSWYQQHPGKAPKLMIYEGSERPSGVSNRFSGSKSGNTASLTISGLQAEDEADYYCCSYTGSSTSFLFGTGTKVTVL"}, "B8": {"name": "mRBD24 (antibody, V domains shown)", "VH": "EVQLQQSGPDLVKPGASVKISCKASGYTFTDYYMNWVKQSHGKSLEWIGDINPNNGGTYYNQKFKGKATLTVDKSSSTAYMELRSLTSEDSAVYYCARQLRRWGQGTLVTVSA", "VL": "not shown"}, "B9": {"name": "hRBD1 (antibody, V domains shown)", "VH": "QVQLVQSGSELKKPGASVKVSCKASGNTLTNHALNWVRQAPGQGLEWMGWINTNTGIPTYAQGFTGRFVFSLDTSVSTAYLQISSLKAEDTAVYYCARVGQTAIAALDDAFDIWGQGTMVTVSS", "VL": "not shown"}, "B10": {"name": "hRBD2 (antibody, V domains shown)", "VH": "B9 VH with N27Y, L29F, T30S, H32Y, L34I, I57H, T74A, S77T, Q101R", "VL": "not shown"}, "B11": {"name": "hRBD13 (antibody, V domains shown)", "VH": "QVQLVESGGGVVQPGRSLRLSCAVSGFTFRNYGMDWVRQAPGKGLEWVAVISYDGSNKYYADSVKGRFTISRDNSKNTLFLHLNSLRAEDTAVYYCAKAGGGPYCGGGNCYMHYFDYWGQGTQVTVSS", "VL": "DIQMTQSPSSLSASVGDRVTITCQASQDINNYLNWYQQKPGKAPKLLIYDASNLETGVPLRFSGSGSATHFSFTISSLQPEDIATYYCQQYDHLPCTFGQGTKLEIR"}, "B12": {"name": "mRBD25 (antibody, V domains shown)", "VH": "QVQLQQSGPELVKPGASVKISCKASGYAFSNSWMNWVKQRPGKGLEWIGRIYPGDGDTNYNGKFKGKATLTADKSSSTAYMQLSSLTSEDSAVYFCANYYGDYWGQGTTLTVSS", "VL": "QIVLTQSPALMSASPGEKVTMTCSASSSVSYMYWYQQKPRSSPKPWIYLTSNLASGVPARFSGSGSGTSYSLTISSMEAEDAATYYCQQWSSNPYTFGGGTKLEIK"}, "B13": {"name": "mRBD11 (antibody, V domains shown)", "VH": "QVQLQQSGAELARPGASVKLSCKASGYTFISNGISWVKQRTGQGLEWIGEIYPRNGNTYYNEKFKGKATLTADKSSSTAYMELRSLTSEDSAVFFCARDYYYGNFDYWGQGTTLTVSS", "VL": "NIVLTQSPASLAVSLGQRATISCRASESVDSYGNSFMHWYQQKPGQPPKLLIYLASNLESGVPARFSGSGSRTDFTLTIDPVEADDAATYYCQQNNEDPYTFGGGTKLEIK"}, "B14": {"name": "mRBD19 (antibody, V domains shown)", "VH": "B5 VH with L29F, A99G, S102Y, F103Y", "VL": "B13 VL with Y100W"}, "B15": {"name": "mRBD22 (antibody, V domains shown)", "VH": "QIQLVQSGPELKKPGETVKISCKASGYTFTEYPMHWVKQAPGKGFKWMGMIYTDTGEPTYAEEFKGRFAFSLETSASTAYLQINNLKNEDTATYFCVRGGYYYFDYWGQGTTLTVSS", "VL": "B13 VL with Y100W"}, "B16": {"name": "mRBD20 (antibody, V domains shown)", "VH": "B5 VH with F103Y", "VL": "B13 VL with V13M, Q42L"}, "B17": {"name": "mRBD16 (antibody, V domains shown)", "VH": "B5 VH", "VL": "B13 VL"}, "B18": {"name": "mRBD21 (antibody, V domains shown)", "VH": "B5 VH with L29F, E31K, F68C, A99W, P101G, F103Y, M105L", "VL": "B13 VL with N1D, L54R, V62I, D80N, A87V, N95S, Y100L, G104A, I110L"}, "B19": {"name": "mRBD15 (antibody, V domains shown)", "VH": "B5 VH with E10D, L29F, K46Q, A92S, F103Y", "VL": "B13 VL with L58V, Q93H, N95I"}, "B20": {"name": "mRBD14 (antibody, V domains shown)", "VH": "EVKLVESGGGLVQPGGSLSLSCAASGFTFTDYYMSWVRQPPGKALEWLGFIRNKANGYTTEYSASVKGRFTISRDNSQSILYLQMNALRAEDSATYYCARYIRTGWYFDVWGTGTTVTVSS", "VL": "DIVMTQSQKFMSTSVRDRVSITCKASQNVRTAVAWYQQKPGQSPKALIYLASNRHTGVPDRFTGSGSGTDFTLTISNVQSEDLADYFCLQHWNYPWTFGGGTKLEIK"}, "B21": {"name": "mRBD5 (antibody, V domains shown)", "VH": "QVQLQQPGAELVKPGASVKVSCKASGYTFTSYWMHWVKQRPGQGLEWIGRIHPSDSDTNYNQKFKGKATLTVDKSSSTAYMQLSSLTSEDSAVYYCAIDWDGDYWGQGTTLTVSS", "VL": "DIVMSQSPSSLAVSAGEKVTMSCKSSQSLLNSRTRKNYLAWYQQKPGQSPKLLIYWASTRESGVPDRFTGSGSGTDFTLTISSVQAEDLAVYYCKQSYNLWTFGGGTKLEIK"}, "B22": {"name": "mRBD6 (antibody, V domains shown)", "VH": "B21 VH with I98M, G102V", "VL": "B21 VL with W101L, G105A, I111L"}, "B23": {"name": "mRBD3 (antibody, V domains shown)", "VH": "QVQLQQPGAELVMPGTSVKLSCKASGYIFTSYWMHWVKQRPGQGLEWIGEIDPSDNYTNYNQKFKGKSTLTVDKSSSTAYMQLSSLTSEDSAVYYCARGGLYYYGSSYDAMDYWGQGTSVTVSS", "VL": "DIVMTQAAPSVPVTPGESVSISCRSSKSLLHSNGNTYLYWFLQRPGQSPQLLIYRMSNLASGVPDRFSGSGSGTAFTLRISRVEAEDVGAYYCMQHLEYPFTFGSGTKLEIK"}, "B24": {"name": "mRBD4 (antibody, V domains shown)", "VH": "QVQLQQPGAELVMPGASVKLSCKASGYTFTSYWMHWVKQRPGQGLEWIGEIDPSDSYTNYNQKFKDKSTLTVDKSSSTAYMQLSSLTSEDSAVYYCARGGVYYYGSSHYFDYWGQGTTLTVSS", "VL": "B23 VL with L51F, A90V"}, "B25": {"name": "mRBD23 (antibody, V domains shown)", "VH": "QVQLQQPGAELVRPGSSVKLSCKASGYTFTSYWMHWVKQRPIQGLEWIGNIDPSDSETHYNQKFKDKATLTVDKSSSTAYMQLSSLTSEDSAVYYCTRPGSLRSRGWYFDVWGTGTTVTVSS", "VL": "B23 VL with A90V, F101Y, S105G"}, "B26": {"name": "mRBD18 (antibody, V domains shown)", "VH": "QIQLVQSGPELKKPGETVKISCKASGYTFTDYPMHWVQQAPGKGFKWMGMIYTDTGEPTYAEEFKGRFAFSLETSASTAYLQINNLKNEDTATYFCVRWAGYFDYWGQGTTLTVSS", "VL": "DIVLTQSPASLAVSLGQRATISCRASESVDSYGNSFMDWYQQKPGQPPKLLIYRASNLESGIPARFSGSGSRTDFTLIINPVEADDVATYYCQQSNEHPLTFGAGTKLELK"}},
  "note": "Changes are numbered by the printed parent chain.",
  "data": [
    {"target": "receptor binding domain (RBD) of the wildtype (WT) SARS-CoV-2 spike protein (SARS-CoV-2, wildtype (sequence as in …))", "values": [
      {"binder": "B1", "binding result": "binds"},
      {"binder": "B2", "binding result": "binds"},
      {"binder": "B3", "binding result": "binds"},
      {"binder": "B4", "binding result": "binds"},
      {"binder": "B5", "binding result": "binds"},
      {"binder": "B6", "binding result": "binds"},
      {"binder": "B7", "binding result": "binds"},
      {"binder": "B8", "binding result": "binds"},
      {"binder": "B9", "binding result": "binds"},
      {"binder": "B10", "binding result": "binds"},
      {"binder": "B11", "binding result": "binds"},
      {"binder": "B12", "binding result": "binds"},
      {"binder": "B13", "binding result": "binds"},
      {"binder": "B14", "binding result": "binds"},
      {"binder": "B15", "binding result": "binds"},
      {"binder": "B16", "binding result": "binds"},
      {"binder": "B17", "binding result": "binds"},
      {"binder": "B18", "binding result": "binds"},
      {"binder": "B19", "binding result": "binds"},
      {"binder": "B20", "binding result": "binds"},
      {"binder": "B21", "binding result": "binds"},
      {"binder": "B22", "binding result": "binds"},
      {"binder": "B23", "binding result": "binds"},
      {"binder": "B24", "binding result": "binds"},
      {"binder": "B25", "binding result": "binds"},
      {"binder": "B26", "binding result": "binds"}
    ]}
  ]
}
